Results taken from patent publication US20050064518A1 (PURDUE PHARMA L P, published 2005).

B1: OC125 (antibody)
chain 1: QVQLQESGPELVKPGASVKISCKASGYTFTDYNMHWVKQSHGKSLEWIGYIYPYNGDTGYNQKFRNKASLTVDTSSSTAYMELRSLTSEDSAVYYWARSGGFWYFDVWGQGGTTVTVSS
chain 2: DIQMTQSPAILSASPGEKVTMTCRATPSVSYMHWYQQKPGSSPKPLIYTTSNLASGVPARFSGGGSGTSYSLTVSRVEVEDAATYYCQQWSRSPPTFGAGTKLEIK
B2: monoclonal antibody 776.1 (antibody, V domains shown)
VH: EVQLQQSGPELVKPGASVKISCKASGYTFTDYNIHWVKQSHGKILEWIGYIYPYNGVSDYNQNFKSKATLIVDNSSNTAYMELRSLTSEDSAVYYCARWDFGSGYYFDYWGQGTTLTVSS
VL: QIVLSQSPAILFASPGETVTMTCRASSSVIYMCWNQQKPGSSPKPWIYGTSTLASGVPTRFSGSGSGTSYSLTISRVEAEDAATYYCQQWSSNPFTFGSGTKLEI
B3: O772P 3-repeat recombinant protein (other)
chain: AAQPARRARRTKLFTHRSSVSTTSTPGTPTVYLGASKTPASIFGPSAASHLLILFTLNFTITNLRYEENMWPGSRKFNTTERVLQGLLRPLFKNTSVGPLYSGCRLTLLRPEKDGEATGVDAICTHRPDPTGPGLDREQLYLELSQLTHSITELGPYTLDRDSLYVNGFTHRSSVPTTSTGVVSEEPFTLNFTINNLRYMADMGQPGSLKFNITDNVMKHLLSPLFQRSSLGARYTGCRVIALRSVKNGAETRVDLLCTYLQPLSGPGLPIKQVFHELSQQTHGITRLGPYSLDKDSLYLNGYNEPGPDEPPTTPKPATTFLPPLSEATTAMGYHLKTLTLNFTISNLQYSPDMGKGSATFNSTEGVLQHLLRPLFQKSSMGPFYLGCQLISLRPEKDGAATGVDTTCTYHPDPVGPGLDIQQLYWELSQLTHGVTQLGFYVLDRDSLFINGYAPQNLSIRGEYQINFHIVNWNLSNPDPTSSEYITLLRDIQDKVTTLYKGSQLHDTFRFCLVTNLTMDSVLVTVKALFSSNLDPSLVEQVFLDKTLNASFHWLGSTYQLVDIHVTEMESSVYQPTSSSSTQHFYLNFTITNLPYSQDKAQPGTTNYQRNKRNIEDALNQLFRNSSIKSYFSDCQVSTFRSVPNRHHTGVDSLCNFSPLARRVDRVAIYEEFLRMTRNGTQLQNFTLDRSSVLVDGYSPNRNEPLTGNSADIQHSGGRSSLEGPRFEQKLISEEDLNMHTGHHHHHH
notes: Repeats are residues 14-452 of the entry

Legend:
[1] = molecular target: B3; assay: ELISA, plate-bound O772P 3-repeat
Description: On the next day, the plates were washed with 200 μl 1×PBST (1× phosphate-buffered saline (PBS), 0.05% Tween 20) three times and blocked with 100 μl of 1×PBST containing 1% bovine serum albumin (BSA) for 2 hours at 37° C. […] After 1 hour incubation at 37° C., the plates were then washed with 1×PBST three times. For signal detection, 100 μl of HRP (horseradish peroxidase)-conjugated sheep anti-mouse IgG (1:2000 dilution into 1×PBST+1% BSA; Amersham Biosciences) was added to each well and incubated for 1 hour at 37° C. The plates were again washed three times with 1×PBST. Finally, 100 μl¹ of a mixture of TMB (3,3′, 5,5′-tetramethylbenzidine) substrate and H₂O₂ (1:1 ratio, KPL Kirkguard Perry Laboratories) was added into each well and after a 5 minute incubation, the absorbance was measured at 405 nm with a plate reader (Molecular Devices Corp., Sunnyvale, Calif.). The assay was done in triplicate for each selected O772P hybridoma-produced antibody and data was collected and analyzed as a kinetic assay, measured over a 5 minute time period. Average values were calculated and presented. Controls for blank and individual reagents were also included in each experiment.

[2] = molecular target: B3; assay: ELISA competition, plate-bound O772P 3-repeat; no competitor
Description: (§1) On the next day, the plates were washed with 200 μl 1×PBST (1× phosphate-buffered saline (PBS), 0.05% Tween 20) three times and blocked with 100 μl of 1×PBST containing 1% bovine serum albumin (BSA) for 2 hours at 37° C. […] After 1 hour incubation at 37° C., the plates were then washed with 1×PBST three times. For signal detection, 100 μl of HRP-conjugated sheep anti-mouse IgG (1:2000 dilution into 1×PBST+1% BSA, Amersham Biosciences) was added to each well and incubated for 1 hour at 37° C. The plates were washed again with 1×PBST three times. Finally, 100 μl¹ of a mixture of TMB substrate and H₂O₂ (1:1 ratio, KPL) was added into each well and the absorbance was measured at 405 nm with a plate reader (Molecular Devices Corp., Sunnyvale, Calif.). The assay was done in triplicate for each selected antibody and average values were calculated and presented. The percent inhibition compared to no competition was calculated for individual antibodies based on average values. Controls for blank and individual reagents were also included in each experiment.

[3] = molecular target: B3; assay: ELISA competition, plate-bound O772P 3-repeat; competitor soluble O772P 3-repeat
Description: as §1

[4] = molecular target: B3; assay: ELISA competition, plate-bound O772P 3-repeat; competitor shed CA 125/O772P
Description: as §1

[5] = molecular target: B3; assay: BIAcore SPR, O772P 3-repeat immobilized, mAb injected
Description: A […] BIAcore biosensor chip was docked into the BIAcore X instrument and activated with 55 μl of 1:1 NHS/EDC at room temperature. O772P 3-repeat region protein and BSA at 10 μg/ml in 0.05 M acetate buffer, pH 4.5, were immobilized onto the flow cell (FC) 1 and FC2 of the activated chip, respectively, at a flow rate of 5 μl/min to achieve a resonance response of 1000-2000 RU. The chip was then blocked by injection of 55 μl of ethanolamine-HCl, pH 8.5, and followed with washing 5 times with 50 mM NaOH-1 M NaCl. To measure the binding of anti-0722P mAbs to the O772P 3-repeat region immobilized to the chip, 30 μl of anti-0722P mAbs at varying concentrations in BIAcore running buffer (HBS-EP, Cat. #1001-080, BIAcore, Piscataway, N.J.) were injected over the sensor surface at a flow rate of 5 μl/min. Following completion of the injection phase, dissociation was monitored in BIAcore running buffer at the same flow rate for 360 seconds. The surface was regenerated between injections using 30 μl of 50 mM NaOH-1 M NaCl. Individual sensorgrams were analyzed using BIAevaluation.

[6] = molecular target: T1, O772P 3-repeat TM on transfected NIH/3T3 cells (human); assay: flow cytometry, NIH/3T3 cells expressing O772P 3-repeat TM; Ab 2 µg/ml
T1 construct: also called NIH/3T3 O772P 3-repeat
T1 chain: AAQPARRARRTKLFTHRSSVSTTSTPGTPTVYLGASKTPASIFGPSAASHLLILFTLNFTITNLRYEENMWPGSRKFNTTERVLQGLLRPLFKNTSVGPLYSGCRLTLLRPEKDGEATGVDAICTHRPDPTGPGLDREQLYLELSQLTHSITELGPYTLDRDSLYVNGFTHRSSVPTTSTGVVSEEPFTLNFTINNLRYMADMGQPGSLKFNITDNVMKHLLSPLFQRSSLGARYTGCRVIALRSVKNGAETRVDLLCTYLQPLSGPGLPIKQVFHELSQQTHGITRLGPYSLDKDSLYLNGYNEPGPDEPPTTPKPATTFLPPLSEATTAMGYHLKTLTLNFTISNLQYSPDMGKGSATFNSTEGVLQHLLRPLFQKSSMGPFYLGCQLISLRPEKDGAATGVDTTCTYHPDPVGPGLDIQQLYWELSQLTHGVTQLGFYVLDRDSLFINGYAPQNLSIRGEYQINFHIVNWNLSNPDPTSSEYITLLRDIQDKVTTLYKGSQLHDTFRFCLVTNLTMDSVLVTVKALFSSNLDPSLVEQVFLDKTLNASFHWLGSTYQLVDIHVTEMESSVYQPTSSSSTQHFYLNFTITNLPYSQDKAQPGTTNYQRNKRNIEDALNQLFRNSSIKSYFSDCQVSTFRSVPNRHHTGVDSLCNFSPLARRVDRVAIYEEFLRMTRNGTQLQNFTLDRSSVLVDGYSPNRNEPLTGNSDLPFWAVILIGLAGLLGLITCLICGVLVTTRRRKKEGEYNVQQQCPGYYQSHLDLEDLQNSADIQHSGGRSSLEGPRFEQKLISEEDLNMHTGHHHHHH

[7] = molecular target: T2, CA 125/O772P on OVCAR-3 cells (human, UniProt Q8WXI7 1-14507); assay: flow cytometry, OVCAR-3 cells; Ab 2 µg/ml
T2 construct: whole, on cells

[8] = molecular target: T3, monoclonal antibody 368.1; assay: ELISA competition: soluble O772P 3-repeat at 10x w/w excess against antibody binding to plate-bound O772P 3-repeat
T3 construct: Murine hybridoma antibody
Description: as §1

[9] = molecular target: T4, monoclonal antibody 501.1; assay: as above
T4 construct: Murine hybridoma antibody
Description: as §1

[10] = molecular target: T5, monoclonal antibody 117.1; assay: as above
T5 construct: Murine hybridoma antibody
Description: as §1

[11] = molecular target: B2; assay: as above
Description: as §1

[12] = molecular target: B1; assay: as above
Description: as §1

T3 sequence (VH, as listed by the source, chain 1 of 2): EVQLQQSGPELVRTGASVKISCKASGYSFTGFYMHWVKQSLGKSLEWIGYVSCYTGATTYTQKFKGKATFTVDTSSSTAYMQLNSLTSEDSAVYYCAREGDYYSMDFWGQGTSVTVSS
T3 sequence (VL, as listed by the source, chain 2 of 2): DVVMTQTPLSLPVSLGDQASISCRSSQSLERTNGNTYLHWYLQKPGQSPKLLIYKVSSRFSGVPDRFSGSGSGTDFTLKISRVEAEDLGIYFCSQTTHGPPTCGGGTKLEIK
T4 sequence (VH, as listed by the source, chain 1 of 2): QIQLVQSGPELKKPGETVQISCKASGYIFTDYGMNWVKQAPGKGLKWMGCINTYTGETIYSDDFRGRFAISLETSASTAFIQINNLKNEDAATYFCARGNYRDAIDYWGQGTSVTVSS
T4 sequence (VL, as listed by the source, chain 2 of 2): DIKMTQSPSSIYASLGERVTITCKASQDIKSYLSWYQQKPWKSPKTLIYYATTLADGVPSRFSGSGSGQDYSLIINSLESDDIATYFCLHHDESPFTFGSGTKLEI
T5 sequence (VH, as listed by the source, chain 1 of 2): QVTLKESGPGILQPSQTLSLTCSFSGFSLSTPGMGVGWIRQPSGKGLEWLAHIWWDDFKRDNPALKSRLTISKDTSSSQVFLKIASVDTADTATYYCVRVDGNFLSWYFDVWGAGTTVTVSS
T5 sequence (VL, as listed by the source, chain 2 of 2): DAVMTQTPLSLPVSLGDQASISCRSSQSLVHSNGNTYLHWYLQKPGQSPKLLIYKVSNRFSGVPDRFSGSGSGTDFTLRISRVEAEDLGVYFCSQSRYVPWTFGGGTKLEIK

Row | Binder | absorbance (OD) [1] | absorbance (OD)/µg Ab [1] | absorbance [2] | absorbance w/O772P 3-repeat competitor (10 x w/w excess) [3] | absorbance w/shed CA 125/O772P competitor (25-fold w/w excess) [4] | Kd [5] | other results
1 | B1 | 0.73 OD | 18 OD/µg Ab | 0.73 OD | 0.047 OD | 0.074 OD | 4 nM | –
2 | B2 | 1.18 OD | 29 OD/µg Ab | 1.18 OD | 0.077 OD | 0.977 OD | 0.4 nM | % positive cells [6]: 86%; % positive cells [7]: 94%
3 | B3 | – | – | – | – | – | – | percent inhibition of binding [8]: 30%; percent inhibition of binding [9]: 96%; percent inhibition of binding [10]: 94%; percent inhibition of binding [11]: 96%; percent inhibition of binding [12]: 99%
4 | monoclonal antibody 16H9 (antibody, V domains shown, Murine hybridoma antibody; also called hybridoma 16H9 (ATCC PTA-5108)) VH: EVQLQQSGAELVKPGASVKLSCTASGFNIKDTYMHWVKQRPEQGLEWIGRIDPANGNTKYDPKFQGKATITADTSSNTAYVQLSSLTSEDTAVYYCASSDIYYGNPGGFAYWGQGTLVTVSA VL: QIVLTQSPAIMSASLGERVTMTCTASSSVSSSYLHWYQQKPGSSPKLWIYSTSNLASGVPARFSGSGSGTSYSLTISSMEAEDAATYYCHQYHRSPFTFGSGTKLEI | – | – | – | – | – | 3.9 nM | –
5 | monoclonal antibody 725.1 (antibody, V domains shown, Murine hybridoma antibody; also called hybridoma 725.1 (ATCC PTA-5124)) VH: QIQLVQSGPELKKPGETVKISCKASGYSFTNYGMNWVKQAPGKGLKWMGWINAYIGEPTYADDFKGRFAFSLEASTHTAYLQINSLKSEDTATYFCASGGNSLDFWGQGTTLTVSS VL: QIILSQSPAILSASPGEKVTMTCRASSSVSSIHWYQQKPESSPKPWIYATSNLASGVPVRFSGSGSGTSYTLTISRMEAADAATYYCQQWSIDPATFGGGTKLEI | – | – | – | – | – | 2.6 nM | –
